Experimental findings from IntAct's records for PubMed 24036454 are described below.

B1: Protein GLUTAMINE DUMPER 1 (Arabidopsis thaliana (Mouse-ear cress)), O81775 (parent)
chain: MRPLSVQSKFEDVATSTSVNHHGVTPQSPWHSPVPYLFGGLAAMLGLIAFALLILACSYWRLSSSGEEDGQNVDEEKESRSGDKAANGAYEEKFLVIMAGEDLPRYLATPAMKKCTCGGHEGKMVISQEESVAKEEEKMREGEEEKVKDTGETTTTSH
partner: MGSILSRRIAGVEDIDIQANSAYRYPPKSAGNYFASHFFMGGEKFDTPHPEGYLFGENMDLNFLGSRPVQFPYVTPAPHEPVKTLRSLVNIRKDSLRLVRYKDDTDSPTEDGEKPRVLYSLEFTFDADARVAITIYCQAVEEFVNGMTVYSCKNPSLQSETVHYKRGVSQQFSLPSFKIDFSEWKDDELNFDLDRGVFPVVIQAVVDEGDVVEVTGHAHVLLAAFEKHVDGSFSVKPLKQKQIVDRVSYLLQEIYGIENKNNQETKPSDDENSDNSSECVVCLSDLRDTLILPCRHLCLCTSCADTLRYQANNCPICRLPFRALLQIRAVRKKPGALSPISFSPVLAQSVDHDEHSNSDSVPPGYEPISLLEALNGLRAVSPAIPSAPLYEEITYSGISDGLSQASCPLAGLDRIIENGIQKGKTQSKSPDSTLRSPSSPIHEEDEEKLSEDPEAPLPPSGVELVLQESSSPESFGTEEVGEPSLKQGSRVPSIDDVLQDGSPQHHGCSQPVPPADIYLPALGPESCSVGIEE
B2: Protein GLUTAMINE DUMPER 1 (Arabidopsis thaliana (Mouse-ear cress)), O81775 (parent)
chain: B1 chain
partner: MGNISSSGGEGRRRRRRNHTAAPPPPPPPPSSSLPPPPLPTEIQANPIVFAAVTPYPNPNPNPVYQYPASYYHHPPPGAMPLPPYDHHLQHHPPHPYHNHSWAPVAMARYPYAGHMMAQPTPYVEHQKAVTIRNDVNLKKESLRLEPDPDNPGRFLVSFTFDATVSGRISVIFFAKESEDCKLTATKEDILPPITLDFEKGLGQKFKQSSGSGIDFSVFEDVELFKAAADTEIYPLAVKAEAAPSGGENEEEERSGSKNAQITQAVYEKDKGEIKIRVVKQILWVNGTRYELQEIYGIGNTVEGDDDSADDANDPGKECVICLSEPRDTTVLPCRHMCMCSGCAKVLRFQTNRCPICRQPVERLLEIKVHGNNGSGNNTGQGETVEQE

In the first assay the parent is B1. Particulars: with mgrn1_rat Mgrn1, Q5XIQ4.
For G100R, the “effect of a mutation on the interaction” value was “disrupting interaction”.

The variants in a further assay derive from B2. To be noted: with lofg2_arath LOG2, Q9S752.
As to G100R, the “effect of a mutation on the interaction” value is “disrupting interaction”.

The variants in another assay derive from B2. To be noted: with lofg2_arath LOG2, Q9S752. This is another data set of the same source.
V96F;I97F;M98F;A99F;G100F: the “effect of a mutation on the interaction” value was “disrupting interaction”.
